# Measured values: US20190040115A1 (IMMATICS BIOTECHNOLOGIES, published 2019)
# Molecular target: T1, HLA-A*02:01 (human)
# T1 construct: captured on streptavidin plates; also called peptide-receptive MHC molecules
# Assay: UV peptide exchange ELISA (anti-b2m); yield grade: + >10%, ++ >20%, +++ >50, ++++ >75%
# From the text: Candidate peptides for T cell based therapies according to the present invention were further tested for their MHC binding capacity (affinity). The individual peptide-MHC complexes were produced by UV-ligand exchange, where a UV-sensitive peptide is cleaved upon UV-irradiation, and exchanged with the peptide of interest as analyzed. Only peptide candidates that can effectively bind and stabilize the peptide-receptive MHC molecules prevent dissociation of the MHC complexes. To determine the yield of the exchange reaction, an ELISA was performed based on the detection of the light chain (β2m) of stabilized MHC complexes. The assay was performed as generally described in Rodenko et al. (Rodenko et al., 2006).
# 96 well MAXISorp plates (NUNC) were coated over night with 2 ug/ml streptavidin in PBS at room temperature, washed 4× and blocked for 1 h at 37° C. in 2% BSA containing blocking buffer. Refolded HLA-A*02:01/MLA-001 monomers served as standards, covering the range of 15-500 ng/ml. Peptide-MHC monomers of the UV-exchange reaction were diluted 100 fold in blocking buffer. Samples were incubated for 1 h at 37° C., washed four times, incubated with 2 ug/ml HRP conjugated anti-β2m for 1 h at 37° C., washed again and detected with TMB solution that is stopped with […]. Absorption was measured at 450 nm. Candidate peptides that show a high exchange yield (preferably higher than 50%, most preferred higher than 75%) are generally preferred for a generation and production of antibodies or fragments thereof, and/or T cell receptors or fragments thereof, as they show sufficient avidity to the MHC molecules and prevent dissociation of the MHC complexes.
row,peptide exchange yield,Binder
1,50 to 75%,FLDDQETRL
2,50 to 75%,GVGPVPARA
3,50 to 75%,ILDDQTNKL
4,50 to 75%,SLIDFVVTC
5,50 to 75%,FVDPNGKISL
6,> 75%,FLGEPASYLYL
7,> 75%,LLDEVLHTM
8,50 to 75%,YLDKTFYNL
9,50 to 75%,ALFPGDVDRL
10,> 75%,IMEDFTTFL
11,50 to 75%,GLVDVLYTA
12,50 to 75%,SVDEVEISV
13,50 to 75%,ALDPAYTTL
14,> 75%,KLFPSPLQTL
15,> 75%,VLYDPVVGC
16,50 to 75%,ILPSNLLTV
17,> 75%,FLDASGAKL
18,50 to 75%,RLEAYLARV
19,> 75%,IQSETTVTV
20,50 to 75%,TLKDIVQTV
21,50 to 75%,FAYDGKDYIAL
22,50 to 75%,TLISDIEAVKA
23,> 75%,VLYEMLYGL
24,> 75%,YLDTFALKL
25,50 to 75%,AVDATVNQV
26,50 to 75%,YVIDPIKGL
27,50 to 75%,FVDGSAIQV
28,50 to 75%,TLPNIYVTL
29,> 75%,ILDDSALYL
30,50 to 75%,VLPDDLSGV
